Measurements published in patent publication US20240182592A1 (CHIA TAI TIANQING PHARMACEUTICAL GROUP, published 2024).

How the values were obtained:
human BCMA on cells [1] = molecular target: T1, human BCMA on cells (human, UniProt Q02223 1-184); test: flow cytometry, MM1S cells
T1 construct: whole, on cells; also called CHO-hBCMA cells; U266 cells
T1 sequence (looked up): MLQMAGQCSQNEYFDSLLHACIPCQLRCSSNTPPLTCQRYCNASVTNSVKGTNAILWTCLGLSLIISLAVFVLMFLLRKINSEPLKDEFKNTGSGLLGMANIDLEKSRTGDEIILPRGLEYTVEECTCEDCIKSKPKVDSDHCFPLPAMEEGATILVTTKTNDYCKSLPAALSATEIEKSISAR
Procedure: (§1) NCI-H929 cells (BCMA+++), MM1S cells (BCMA++), and RPMI-8226 cells (BCMA+) in the logarithmic growth phase were taken, adjusted to a cell density of 5×10⁶-10×10⁶ cells/mL using RPMI medium (Hyclon, catalog No. SH30809.01) containing 2% FBS (fetal bovine serum), respectively, and seeded in a 96-well U-bottom cell culture plate (Costar, catalog No. 3799) at 50 μL per well. The test antibodies at different concentrations were prepared using the medium described above. […] The antibodies at different concentrations were added to the 96-well cell culture plate described above at 50 μL per well, mixed well and incubated at 4° C. for 1 h. The cells were washed with pre-cooled running buffer (MACS, catalog No. 130-091-221), and the supernatant was discarded. Pre-cooled fluorescent labeled goat anti-human IgG antibodies (Jackson, catalog No. 109-116-170) were added, and the cells were resuspended at 100 μL per well, mixed well and incubated at 4° C. for 30 min. After washing, 100 μL of pre-cooled running buffer was added to resuspend the cells. The cells were mixed well and collected while flowing on an Attune™ NxT flow cytometer, and the data was analyzed using Graphpad Prism5 software. FIGS. 7-9 and Table 11 show the binding ability of the anti-BCMA/anti-CD3 multispecific antibodies to NCI-H929 cells (BCMA+++), MM1S cells (BCMA++), and RPMI-8226 cells (BCMA+).

human BCMA on cells [2] = molecular target: T1, human BCMA on cells; test: flow cytometry, NCI-H929 cells
Procedure: as §1

human BCMA on cells [3] = molecular target: T1, human BCMA on cells; test: cell-based or functional assay
human BCMA on cells [4] = molecular target: T1, human BCMA on cells; test: cell-based or functional assay; remark: listed apart in the source
human BCMA on cells [5] = molecular target: T1, human BCMA on cells; test: cell-based or functional assay; remark: listed apart in the source
[6] = molecular target: T2, human CD3e (Acro, Cat. No. CDE-H5223) (human, UniProt P07766 23-126); test: SPR (Biacore T200), antibody captured by anti-hIgG, human CD3e as analyte, 1:1 model
T2 construct: also called human CD3e protein; hCD3e
T2 sequence (P07766 23-126 limits assumed): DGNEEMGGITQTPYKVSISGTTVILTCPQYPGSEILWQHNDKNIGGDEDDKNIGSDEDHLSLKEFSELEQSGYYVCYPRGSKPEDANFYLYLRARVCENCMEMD
Procedure: (§2) The affinity of the test antibody for human CD3e or human BCMA protein was determined by Biacore T200 (GE) as follows:
(§3) The response signals were detected in real time using Biacore software, and association and dissociation curves were obtained. The buffer used in the experiment was Biacore universal buffer (137 mM NaCl, 2.7 mM KCl, 10 mM Na₂HPO₄.12H₂O, 1.8 mM KH₂PO₄. 0.05% surfactant P-20 (w/v), pH 7.4). […] The flow rate in the flow cell was at 50 μL/min, the association was performed for 240 s, the dissociation was performed for 1400 s, the regeneration was performed using 3 M MgCl (GE) for 60 s, and the baseline was stable. Results were obtained by calculation according to the affinity and kinetics 1:1 binding mode in biacore evaluation software.

T cell surface CD3 = molecular target: T3, T cell surface CD3 (human, UniProt P07766 23-207); test: flow cytometry, human CD3+ T cells
T3 construct: whole, on cells; also called CD3^+ T cells
T3 sequence (P07766 23-207): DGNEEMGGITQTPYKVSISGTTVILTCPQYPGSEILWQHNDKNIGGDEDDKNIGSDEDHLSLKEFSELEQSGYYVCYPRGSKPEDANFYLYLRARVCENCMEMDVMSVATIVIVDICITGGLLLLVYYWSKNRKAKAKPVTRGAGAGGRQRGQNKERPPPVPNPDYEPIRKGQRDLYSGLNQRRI
Procedure: Human PBMC cells were sorted for CD3⁺ T cells using CD3 magnetic beads (Miltenyi, catalog No. 130-097-043): the cryopreserved PBMCs were thawed, and washed by centrifugation twice for counting. Running buffer (MACS, catalog No. 130-091-221) was added in a cell-to-buffer ratio of 10⁷:80 μL, CD3 beads were added in a cell-to-bead ratio of 10⁷:20 μL, and the mixture was mixed well and incubated at 4° C. for 15 min. The cells were washed with buffer in a cell-to-buffer ratio of 10⁷:1-2 mL. After centrifugation, the supernatant was discarded, and 500 μL of buffer was added to resuspend the cell pellet. The LS sorting column (Miltenyi, catalog No. 130-042-401) was placed on the MidiMACS Starting Kit (LS) magnetic rack (Miltenyi, catalog No. 130-091-051). After rinsing, the cell suspension was added and washed thrice. The LS sorting column was removed from the magnetic rack and placed on a clean centrifuge tube and 5 mL buffer was added to collect the sorted CD3⁺ T cells. After counting, the CD3⁺ T cells were adjusted to a cell density of 5×10⁶-10×10⁶ cells/mL using RPMI medium (Hyclone, catalog No. SH30809.01) containing 2% FBS (fetal bovine serum) and seeded in a 96-well U-bottom cell culture plate (Costar, catalog No. 3799) at 50 μL per well. The test antibodies at different concentrations were prepared using the medium described above. […] The antibodies at different concentrations were added to the 96-well cell culture plate described above at 50 μL per well, mixed well and incubated at 4° C. for 1 h. The cells were washed with pre-cooled running buffer (MACS, catalog No. 130-091-221), and the supernatant was discarded. Pre-cooled fluorescent labeled goat anti-human IgG antibodies (Jackson, catalog No. 109-116-170) were added, and the cells were resuspended at 100 μL per well, mixed well and incubated at 4° C. for 30 min. After washing, 100 μL of pre-cooled running buffer was added to resuspend the cells.

human BCMA protein = molecular target: T4, human BCMA protein (human, UniProt Q02223 1-54, limits assumed); test: SPR (Biacore T200), antibody captured by anti-hIgG, human BCMA as analyte, 1:1 model
T4 construct: also called hBCMA; Antigen BCMA
T4 sequence (looked up): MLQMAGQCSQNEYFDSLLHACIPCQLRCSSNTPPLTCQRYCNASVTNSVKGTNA
Procedure: as §2, §3

human BCMA on cells [7] = molecular target: T1, human BCMA on cells; test: flow cytometry on RPMI-8226 cells, fluorescent goat anti-human IgG detection
Procedure: as §1

B1: anti-BCMA/anti-CD3 multispecific antibody PC2 (bispecific antibody, human IgG1)
chain 1: QVQLVESGGGLVQPGGSLRLSCAASGYSSNVACMAWYRQAPGKGLEWVATIVADFGTTNYAASVKGRFTISQDNSKNTVYLQMNSLRAEDTAVYYCAATQRGGIDWCDEINYWGQGTLVTVSSGEPKSSDKTHTCPPCPAPEAAGGPSVFLFPPKPKDTLMISRTPEVTCVVVDVSHEDPEVKFNWYVDGVEVHNAKTKPREEQYNSTYRVVSVLTVLHQDWLNGKEYKCKVSNKALAAPIEKTISKAKGQPREPQVCTLPPSREEMTKNQVSLSCAVKGFYPSDIAVEWESNGQPENNYKTTPPVLDSDGSFFLVSKLTVDKSRWQQGNVFSCSVMHEALHNHYTQKSLSLSPGK
chain 2: QVQLVESGGGLVQPGGSLRLSCAASGFTFNSACMGWFRQAPGKGREGVSRIETGYGGTVYADSVKGRFTISRDNSKNTVYLQMNSLRAEDTAVYYCAAKRSWCTPTWWHELDYNYWGQGTQVTVSSGGGGSELVVTQEPSLTTSPGGTVTLTCRSSTGAVTTSNYANWVQQKPGQAPRGLIGGTNKRAPGTPARFSGSLLGGKAALTITGVQPEDEAEYYCALWYSNLWVFGGGTKLTVLGGGGSGGGGSGGGGSEVQLVESGGGLVQPGGSLRLSCAASGFTFNTYAMNWVRQAPGKGLEWVARIRSKYNNYATYYADSVKDRFTISRDDSKNTAYLQMNNLKTEDTAMYYCVRHGNFGNSYVSWFAYWGQGTLVTVSSGEPKSSDKTHTCPPCPAPEAAGGPSVFLFPPKPKDTLMISRTPEVTCVVVDVSHEDPEVKFNWYVDGVEVHNAKTKPREEQYNSTYRVVSVLTVLHQDWLNGKEYKCKVSNKALAAPIEKTISKAKGQPREPQVYTLPPCREEMTKNQVSLWCLVKGFYPSDIAVEWESNGQPENNYKTTPPVLDSDGSFFLYSKLTVDKSRWQQGNVFSCSVMHEALHNRFTQKSLSLSPGK
notes: Trivalent; two chains; human IgG1 knobs-into-holes Fc
EC50 (human BCMA on cells [1]): 0.311 nM
Top(MFI) (human BCMA on cells [1]): 115000 MFI
EC50 (human BCMA on cells [2]): 1.03 nM
Top(MFI) (human BCMA on cells [2]): 234000 MFI
Lysis EC50, NCI-H929 cells with human PBMCs (E:T 10:1, 24 h, LDH release) (human BCMA on cells [3]): 0.527 nM
Maximum lysis rate, NCI-H929 cells with human PBMCs (human BCMA on cells [3]): 38%
Lysis EC50, MM1S cells with human PBMCs (E:T 10:1, 24 h, LDH release) (human BCMA on cells [4]): 0.0605 nM
Maximum lysis rate, MM1S cells with human PBMCs (human BCMA on cells [4]): 28%
Lysis EC50, RPMI-8226 cells with human PBMCs (E:T 10:1, 24 h, LDH release) (human BCMA on cells [5]): 0.0185 nM
Maximum lysis rate, RPMI-8226 cells with human PBMCs (human BCMA on cells [5]): 39%
Kd [6]: 1.33 nM
EC50 (T cell surface CD3): ~462 nM
Top(MFI) (T cell surface CD3): 37200 MFI
Kd (human BCMA protein): 0.0185 nM
EC50 (read off the curve) (human BCMA on cells [7]): ~0.3 nM
